From publication PMC6386614

Biological target: T1, hnRNP H1-His6 (UniProt P31943 1-449)
T1 sequence: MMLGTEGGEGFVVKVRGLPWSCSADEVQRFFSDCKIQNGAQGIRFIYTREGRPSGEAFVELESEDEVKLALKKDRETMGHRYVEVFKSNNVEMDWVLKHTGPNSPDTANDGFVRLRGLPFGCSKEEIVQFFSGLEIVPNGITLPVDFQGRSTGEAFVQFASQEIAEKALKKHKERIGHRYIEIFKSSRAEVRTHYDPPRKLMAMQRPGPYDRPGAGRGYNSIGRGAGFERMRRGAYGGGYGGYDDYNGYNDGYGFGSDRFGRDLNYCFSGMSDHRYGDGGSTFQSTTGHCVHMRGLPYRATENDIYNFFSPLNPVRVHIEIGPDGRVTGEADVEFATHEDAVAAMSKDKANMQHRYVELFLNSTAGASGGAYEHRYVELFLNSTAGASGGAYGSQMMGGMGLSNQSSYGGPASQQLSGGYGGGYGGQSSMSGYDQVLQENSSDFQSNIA
Test: EMSA

For GGGGCCGGGGCCGGGGCCGGGGCCGGGGCCGGGGCCGGGGCCGGGGCC (structured_RNA) [r(G4C2)8 (32P)], the Kd was 65 ± 26 nM.
